B1: HDV Ribozyme (parent)
chain: GGCCGGCAUGGUCCCAGCCUCCUCGCUGGCGCCGGCUGGGCAACAUUCCGAGGGGACCGUCCCCUCGGUAAUGGCGAAUGGGACCCA

Variants of: B1
Assay: self-cleavage, relative activity (ratio to wild type); higher = more cleavage; co-transcriptional

Row | Variant | self-cleavage
1 | GGCCGGCAUGGUCCCAGCCUCCUCGCUGGCGCCGGCUGGGCAACAUUCCGAGGGGACCGUCCCCUCGGGAAUGGCGAAUGGGAUCCA [U69G C84U] | 0.554
2 | GGGCGGCAUGGUCCCAGCCUCCUCGCUGGCGCCGGCUGGGCACCAUUCCGAGGGGACCGUCCCCUCGGUAAUGGCGAAUGGGACCCA [C3G A43C] | 0.261
3 | GGCCGGCAUGGUCCCAGCCUCCUCGCUGGCGCCGGCUGGGCAACAUUCCGAGGGGACCGUCCCCUCGGUGAUGGCGAAUGGGACCCU [A70G A87U] | 0.928
4 | GGCCGGCAUGGUCCCAGCCUCCUCUCUGGCGCCGGCUGGGCAACAUUCCGAGGGGACCGUCCCCUCGGUACUGGCGAAUGGGACCCA [G25U A71C] | 0.213
5 | GGCCGGCAUGUUGCCAGCCUCCUCGCUGGCGCCGGCUGGGCAACAUUCCGAGGGGACCGUCCCCUCGGUAAUGGCGAAUGGGACCCA [G11U C13G] | 0.0831
6 | GGCCGGCAUGGUCCCAGCCUUCUCGCUGGCGCCGGCUUGGCAACAUUCCGAGGGGACCGUCCCCUCGGUAAUGGCGAAUGGGACCCA [C21U G38U] | 0.135
7 | GUCCGGCAUGGUCCCAGCCUCCUCGCUGGCGCCGGCUGGGCAACAUUCCGAGGGGUCCGUCCCCUCGGUAAUGGCGAAUGGGACCCA [G2U A56U] | 0.016
8 | GGCCGGCAUGGUCCCAGCCUCCUCGCUGGCGCCGGCUGGGCAACAUUCCGAGGGGACCGUCCCCUCUAUAAUGGCGAAUGGGACCCA [G67U G68A] | 0.972
9 | GGCCGGCAUGGUCCCAGCCGCCUCGCUGGCGCCGGCUGGGCAACAUUCCGAGGGGACCGUCCCCUCGGUAAUGGCAAAUGGGACCCA [U20G G76A] | 0.214
10 | GGCCGGCAUGGUCCCAGCCUCCUCGCUGGCGCCGGCUGGGCCACAUUCCGAGGGGACCGUCCCCUCGGUAAUGGCCAAUGGGACCCA [A42C G76C] | 0.277
11 | GGCCGGCAUGGUCCUAGCCUCCUCGCUGGCGCCGGCUGGGCAACAUUCCGAGGGGACCGUCCCCUCGGUAAUGGCGAAUGCGACCCA [C15U G81C] | 0.317
12 | GGCCGGCAUGGUCCCAGCCUCCUCGCUGGCGCCGGCUGGGCAACAUUCCGAGGGGACCGACCUCUCGGUAAUGGCGAAUGGGACCCA [U60A C63U] | 0.972
13 | GGCCGCCAUAGUCCCAGCCUCCUCGCUGGCGCCGGCUGGGCAACAUUCCGAGGGGACCGUCCCCUCGGUAAUGGCGAAUGGGACCCA [G6C G10A] | 0.147
14 | GGCCGGCAUGGUCCCAGCCUCCUCGCUGGCGCCGGCUGGGCAACAUUCCGAGGGGACCGUCCCCUCCGUAAUGGCGAAUGGGAACCA [G67C C84A] | 0.682
15 | GGCCGGCAUGGUCCCAGCCUCCUCGCUGCCGCCGGCUGGGCAACAUUCCGAGGGGACCGUCCCCUCGGUAAUGGCGAAUGGGAUCCA [G29C C84U] | 0.032
16 | UGCCGGCAUGGUCCCAGCCUCCUCGCUGGCGCCGGCUGGGCAACAUUCCGAGGGGACCGUCCCCUCGGUAAUGGCGAAUGGGAACCA [G1U C84A] | 0.408
17 | GGCCGGCAUGGUCCCAGCCUCCUCGCUGGCGCCGGCUCGGCAACAUUCCGAGGGGACCGUCCCCUCGGUAAUGGCGAAUGGGACACA [G38C C85A] | 0.0997
18 | GGCCGGCAUGGUCCCAGCCUCCUCGUUGGCGCCGGCUGGGCAUCAUUCCGAGGGGACCGUCCCCUCGGUAAUGGCGAAUGGGACCCA [C26U A43U] | 0.708
19 | GGCCGGCAUGGUCCCAGCCUCCUCCCUGGCGCCGGCUGGGCAACAUUCCGAGGGGACCGUCCCCUCGGUAAUGGCGCAUGGGACCCA [G25C A77C] | 0.104
20 | GGCCGGCAUGGUCCCAGCCUCCUCGUUGGCGCCGGCUGGGCAACAUUCCGAGGGGACCGUCCCCUCGGUAAUGGCGAAUGGUACCCA [C26U G82U] | 0.769
21 | GGCCGACAUGGUCCCAGCCUCCUCGCUGGCGCCGGCUGUGCAACAUUCCGAGGGGACCGUCCCCUCGGUAAUGGCGAAUGGGACCCA [G6A G39U] | 0.317
22 | GGCCCGCAUGGUCCCAGCCUCCCCGCUGGCGCCGGCUGGGCAACAUUCCGAGGGGACCGUCCCCUCGGUAAUGGCGAAUGGGACCCA [G5C U23C] | 0.208

Row | Variant | self-cleavage
23 | GGCCGGCAAGGUCCCAGCCUCCUCGCUGGCGCCGGCUGGGCAACAUUCCGAGGGGACCGUCCCCUCUGUAAUGGCGAAUGGGACCCA [U9A G67U] | 0.849
24 | GGCCGGCAUGGUCCCAGCCUCCUCUCUGGCGCCGGCUGGGCAACAUUCCGAAGGGACCGUCCCCUCGGUAAUGGCGAAUGGGACCCA [G25U G52A] | 0.166
25 | GGCCGCCAUGGUCCCAGCCUCUUCGCUGGCGCCGGCUGGGCAACAUUCCGAGGGGACCGUCCCCUCGGUAAUGGCGAAUGGGACCCA [G6C C22U] | 0.185
26 | GGCCGGCAUGGUCCCAGCCUCCUCGCUGGCGACGGCUGGGCAACAUUCCGAGGGGACCGUCCCCUCGGUAAUAGCGAAUGGGACCCA [C32A G73A] | 0.138
27 | GGCCGGCAUGGUCCCAGCCUCGUCGCUGGCGCCGGCUGGGCAACAUUCCGAGGGGACUGUCCCCUCGGUAAUGGCGAAUGGGACCCA [C22G C58U] | 0.172
28 | GGCCGGCCUGGUCCCAGCCUCCUCGCUGGCGCCGGCUGGGCAACAUUCCGAGGGGACCGUCCCCUCGGUCAUGGCGAAUGGGACCCA [A8C A70C] | 0.612
29 | GGCCGGCAUGGUCCCAGCCUCCUCGCUGGCGCCGGCUGGGCGACAUUCCGAGGGGACCGUCCCCUCGAUAAUGGCGAAUGGGACCCA [A42G G68A] | 0.441
30 | GGCCGGCACGGUUCCAGCCUCCUCGCUGGCGCCGGCUGGGCAACAUUCCGAGGGGACCGUCCCCUCGGUAAUGGCGAAUGGGACCCA [U9C C13U] | 0.453
31 | CGCCGGCAUGGUCCCAGCCUCCUCGCUGGGGCCGGCUGGGCAACAUUCCGAGGGGACCGUCCCCUCGGUAAUGGCGAAUGGGACCCA [G1C C30G] | 0.128
32 | GGCUGGCAUGGUCCCAGCCUCCUCGCUGGCGCCGGCUGGGCAACAUUCCGAGGGGACCGUCCCCUCGGUAAUGGCGAAUGGUACCCA [C4U G82U] | 0.119
33 | GGCCGGCAUGGUCCCAGCCUCCUCGCUGGCGCCGGCUGGGCAACAUUCCGAGGGGACCGUCCCCUCGGUUAUGGCGAAUGGGACCUA [A70U C86U] | 1.07
34 | GGCCGGCAUGGUCCCAGCCUCCUCGCUGGCGCCGGCUGGGCAACAUUCCGAGGGGACCGUCCCCUCGGUAAUGGCGAAUGGGUCACA [A83U C85A] | 0.237
35 | GGCCGGCAUGGUCCCAGCCUCCUCUCUGGCGCCGGCUGGGCUACAUUCCGAGGGGACCGUCCCCUCGGUAAUGGCGAAUGGGACCCA [G25U A42U] | 0.173
36 | GGCCGGCACGGUCCCAGCCUCCUCGCUGGCGCCGGCUGGGCAACAUUCCGAGGGGACCGUCCCCUCGGUAAUGGCGAAGGGGACCCA [U9C U79G] | 0.519
37 | GGCCGGCAUGGUCCCAGCCUCCUCGCUGGCGCCGGCUAGGCAACAUUCCGAGGGGACUGUCCCCUCGGUAAUGGCGAAUGGGACCCA [G38A C58U] | 0.175
38 | GGCCGGUAUGGUCCCAGCCUCCUCGCUGGCGCCGGCUGGGCAACAUUCCGAGGGGACCCUCCCCUCGGUAAUGGCGAAUGGGACCCA [C7U G59C] | 0.848
39 | GGCCGGCAUGGUCCCAGCCUCCUCGCUGGCGCCGGCUGGGCAACAUUCCGAGGGGACCGUCCCCUCGGUUAUGGCGAAUGCGACCCA [A70U G81C] | 0.193
40 | AGCCGGCAUGGUCCCAGCCUCCUCGCUGGCGCCGGGUGGGCAACAUUCCGAGGGGACCGUCCCCUCGGUAAUGGCGAAUGGGACCCA [G1A C36G] | 0.119
41 | GGCCGGCAUGGUCCCAGCCUCCUCGCUGGCGCCGGCUGGGCAACAGUCCGAGGGGACCUUCCCCUCGGUAAUGGCGAAUGGGACCCA [U46G G59U] | 0.902
42 | GGCCGGCAUGGUCCCAGCCUCCUCGCUGGCGCCGGUUGGGCAACAUUCCGAGGGGACCGUCCCCUCGGUAAUGUCGAAUGGGACCCA [C36U G74U] | 0.191
43 | GGCCGGCAUGGUCCCAGCCUCCUCGCUGGCGCCGGCUGGGCAACAUUCAGAGAGGACCGUCCCCUCGGUAAUGGCGAAUGGGACCCA [C49A G53A] | 0.816
44 | UGCCGGCAUGGUCCCAGCCUCCUCGCUGGCGCCGGCUGGGCAACAUUCCGAGCGGACCGUCCCCUCGGUAAUGGCGAAUGGGACCCA [G1U G53C] | 0.283

Row | Variant | self-cleavage
45 | GGCCGGCAUGGUCCCAGCCUCCUCGCUGGCGCCGGCUGGGCAACAUUCCUAGGGGACCGUCCCCUCGGUAGUGGCGAAUGGGACCCA [G50U A71G] | 0.78
46 | GGCCGGCAUGGUCCCAGCCUCCUCGCUGGCGGCGGCUGGGCAACAUUCCGAGGGGACCGUCCCCUCGGAAAUGGCGAAUGGGACCCA [C32G U69A] | 0.148
47 | GGCCGGCAUGUUCCCAGCCUCCUCGCUGGCGCCGGCUGGGCAACAUUCCGAGGGGACCGUCCCCUCGGUAUUGGCGAAUGGGACCCA [G11U A71U] | 0.158
48 | GGCCGGCAUGGACCCAGCCUCCUCGCUGGCACCGGCUGGGCAACAUUCCGAGGGGACCGUCCCCUCGGUAAUGGCGAAUGGGACCCA [U12A G31A] | 0.125
49 | GGCCGGCAGGGUCCCAGCCUCCUCGCUGGCGCCGGCUGGGCAACAUUCCGAGGGGACCGUCCCCUCGGUAAUGGCGAAGGGGACCCA [U9G U79G] | 0.923
50 | GGCCGGCAUGGUCCCAGCCUCCUCACUGGCGCCGGCUGGGCAACAUUCCGAGGGGACCGUCCCCUCGGUAAUGGCGAAUGCGACCCA [G25A G81C] | 0.258
51 | GGCCGGCAUGGUCCCACCCUCCUCGGUGGCGCCGGCUGGGCAACAUUCCGAGGGGACCGUCCCCUCGGUAAUGGCGAAUGGGACCCA [G17C C26G] | 0.0852
52 | GGCCGGCAUGGUCCCAGCCUCCUCGCUGGCGCCGGCUGGGCAACAUUCCGAGGGGACCGUGCCCUCGGUGAUGGCGAAUGGGACCCA [C61G A70G] | 0.844
53 | GGCCGGCAUGGUCCCAGCCUCGUCGCUGGCGCCGGCUGGGCAACAUUCCGAGGGGACCGUCCCCUCGGUAAUGGCGAAUGGGUCCCA [C22G A83U] | 0.0462
54 | GGCCGGCAUGGUCCCAGCCUCCUCGCUGGCGCCGGCUGGGCAACAUUCCGAGGGGACCGUCCCCUCGGUAAUGGCGAAUGGGACUCG [C85U A87G] | 0.963
55 | GGCCGGCAUGGUCCCAGCCUCCUCUCUGGCGCCGGCUGCGCAACAUUCCGAGGGGACCGUCCCCUCGGUAAUGGCGAAUGGGACCCA [G25U G39C] | 0.0773
56 | GGCCGGCAUGGUCCCAGCCUCCUCGCUGGCGCCGGCUGGGGAACAAUCCGAGGGGACCGUCCCCUCGGUAAUGGCGAAUGGGACCCA [C41G U46A] | 0.293
57 | GGCCGGCAUGGUCCCAGCCUCCUCGCUGGCGCCUGCUGGGCAACAUGCCGAGGGGACCGUCCCCUCGGUAAUGGCGAAUGGGACCCA [G34U U47G] | 0.267
58 | GGCCGGCAUGGUCCCACCCUCCUCGCUGGCACCGGCUGGGCAACAUUCCGAGGGGACCGUCCCCUCGGUAAUGGCGAAUGGGACCCA [G17C G31A] | 0.0652
59 | GGCCGGCAUGGUCCCAGCCUCCUCGCUGGCGCCGGCUGUGCAACAGUCCGAGGGGACCGUCCCCUCGGUAAUGGCGAAUGGGACCCA [G39U U46G] | 0.222
60 | GGCCGGCAUGGUCCCAGCCUCCUCGCUGGCGCCGGCUGGGCAACAUUCCGAGGGGACCCUCCCCUCGGUAAUGGCGCAUGGGACCCA [G59C A77C] | 0.101
61 | GGCCAGCAUGGUCCCAGCCUCCUCGCUGACGCCGGCUGGGCAACAUUCCGAGGGGACCGUCCCCUCGGUAAUGGCGAAUGGGACCCA [G5A G29A] | 0.155
62 | GGCCGGCAUGGUCCCAGCCUCCUCGCUGGCGCCGGCUGAGCAACAUUCCGAGGGGACCGUCCCCUCGGUAAUGGCGAAUGGGACCCU [G39A A87U] | 0.531
63 | GGCCGGCAUGGUCCCAGCCUCCUCCCUGGCGUCGGCUGGGCAACAUUCCGAGGGGACCGUCCCCUCGGUAAUGGCGAAUGGGACCCA [G25C C32U] | 0.0755
64 | GGCCGGCAUGGUCCCAGCCUCCUCGCUGGCGCCGGCUGGGCAACAUUCCGAGGGGACCGUCCCGUCCGUAAUGGCGAAUGGGACCCA [C64G G67C] | 0.332
